Tested on: isolated rat liver mitochondria
Experiment: ClickIn/MPP uptake experiment in isolated rat liver mitochondria (MALDI-TOF quantification of clicked, processed PNA 8)
Type: in vitro ADME
Description: Rat liver mitochondria were prepared by differential centrifugation as previously described, and diluted to a 20 mg protein ml^−1 concentration in STE buffer (250 mM sucrose, 5 mM Tris, 1 mM EGTA, pH 7.4) and stored for a maximum of 3 h on ice. Peptide–PNA 6 was dissolved at the indicated concentrations in 100 µl KCl buffer (120 mM KCl, 10 mM HEPES, 1 mM EGTA, 1 mM ADP, 1 mM MgCl2, 1 mM KPi, 0.05% BSA, pH 7.4) supplemented with 10 mM potassium succinate, 4 µg ml^−1 rotenone and 10 µM MitoOct. Where indicated carbonyl cyanide-4-(trifluoromethoxy)phenylhydrazone (FCCP, 500 nM) was added to the buffer. The buffer was warmed for 5 min at 37°C after which the reaction was initiated by addition of 5 µl mitochondria suspension (100 µg protein). The mitochondria were incubated for 1 h at 37°C, after which the reaction was stopped by the addition of 3-phenyl-1,2,4,5-tetrazine (PhTet, 50 µM). The mitochondria were pelleted by centrifugation at 16 000g for 1 min, and supernatant was removed. Next 100 µl 20% acetonitrile solution with 0.1% formic acid, 50 µM PhTet and 0.1 µM internal standard 5 was added to the pellet. The pellet was suspended by three cycles of freezing in solid CO2 (5 min) and sonication in a Grant XB2 ultrasonic bath. The obtained solution was centrifuged at 16 000g for 10 min. The sample was spotted onto an MALDI-plate using the bottom-layer method. Matrix (0.75 µl, 50% acetonitrile, 5 mg ml^−1 α-cyano-4-hydroxycinnamic acid, 10 mM dibasic ammonium citrate, 0.1% TFA) was spotted on the plate and 0.75 µl sample was mixed in. The spot was left to dry at room temperature, after which another layer of 0.75 µl of matrix was added. In total, 20 spectra with 10 shots each were collected per spot, using a minimum intensity of 1000 and a maximum of 10 000 as selection criterion, averages were taken of three spots per experiment. All experiments were performed in triplicate using different mitochondrial preparations and are presented as averages ±s.e.m.
Isolated rat liver mitochondria were incubated with various concentrations of peptide (0.1–10 µM) in import buffer, in the presence of MitoOct, for 1 h at 37°C. As previously described, the reaction was stopped by addition of PhTET and centrifugation. The pellet was extracted (20% acetonitrile, 0.1% formic acid, 50 µM PhTet, 0.1 μM 5) and analysed by MALDI-TOF (figure 3 and electronic supplementary material, S1). […] This is consistent with FCCP not only inhibiting the ClickIn reaction, but also inhibiting the processing of COX8-PNA-click by stopping import of 6. The absence of signal in the presence of FCCP is striking (figure 3 and electronic supplementary material, S1), and enables the qualitative observation of PNA uptake in isolated mitochondria. […] It is interesting to note that, even though the MPP is known to cleave after the 25th residue of the COX8 pre-sequence, we see no evidence of the four amino acids, IHSL, predicted to remain at the N-terminal of our cleaved product. Our previous unpublished results have shown a very minor amount of the PNA product still carrying leucine at the N-terminal but not any of the remaining amino acids. It is likely that these residues are removed by a protease residing in the mitochondrial matrix.

**Q.** How did the “formation of product 8 in the presence of FCCP (uncoupled membrane potential)” value (as the uptake experiment, plus FCCP 500 nM, all added concentrations of 6 (0.1–10 µM), 1 h at 37°C, MALDI-TOF) turn out when “COX8-Cys-Ac-GTCA-Lys(N3)-NH2 [compound 6]” was run?
**A.** The value was “no product 8 could be observed”.

**Q.** What about the “formation of clicked PNA (product 8) as measure of mitochondrial matrix import” value (isolated rat liver mitochondria (100 µg protein) in 100 µl KCl buffer pH 7.4, 10 mM succinate, 4 µg/ml rotenone, 10 µM MitoOct, 0.1–10 µM 6, 1 h at 37°C, stopped with 50 µM PhTet, pellet extract, MALDI-TOF with 0.1 µM internal standard 5, triplicate, different mitochondrial preparations) of the same substance?
**A.** The value was “Significant amounts of clicked PNA were observed in all samples”.

**Q.** And the “concentration dependence of the ClickIn/MPP reaction (quantified 8)” value (isolated rat liver mitochondria, 10 µM MitoOct, 1 h at 37°C, MALDI-TOF with internal standard 5, figure 3c, averages ± s.e.m., triplicate)?
**A.** The value was “typical dose–response curve for concentrations of 6 up to 5 µM”.

**Q.** And the “cleaved but not clicked 6 seen in mass spectra” value (isolated rat liver mitochondria, 10 µM MitoOct, 1 h at 37°C, MALDI-TOF, without FCCP, not observed in the presence of FCCP)?
**A.** Its value is “small amounts of cleaved but not clicked 6”.

**Q.** What about the “toxic effect on the mitochondria” value (isolated rat liver mitochondria, concentrations of 6 higher than 5 µM, inferred from the dose–response curve) of the same substance?
**A.** Its value is “might have a toxic effect on the mitochondria”.

— paper PMC5311907, “ClickIn: a flexible protocol for quantifying mitochondrial uptake of nucleobase derivatives” (Interface Focus, 2017)
